Experimental data published in PMC12562432, “G4 Oligonucleotide-Based Chaperones of Heterogeneous Nuclear Ribonucleoprotein A1”.

Target: hnRNP A1 (UniProt P09651 1-251+304-372, internal_change)
Experiment: MST; 150 mM KCl; MST: 100 nM RED-labelled hnRNP A1, oligonucleotide titrated, 10 min incubation, working buffer with 150 mM KCl (40 mM HEPES-KOH pH 7.0 stated for the other assays); Hill model; temperature not stated
Settings: tags: RED dye label (MST); parallel G4 loop on short duplex stem GCUGC/GCAGC, 5' single-stranded UCAGUU

Sequence of hnRNP A1 (P09651 other isoform, or with tags, fused parts or gaps): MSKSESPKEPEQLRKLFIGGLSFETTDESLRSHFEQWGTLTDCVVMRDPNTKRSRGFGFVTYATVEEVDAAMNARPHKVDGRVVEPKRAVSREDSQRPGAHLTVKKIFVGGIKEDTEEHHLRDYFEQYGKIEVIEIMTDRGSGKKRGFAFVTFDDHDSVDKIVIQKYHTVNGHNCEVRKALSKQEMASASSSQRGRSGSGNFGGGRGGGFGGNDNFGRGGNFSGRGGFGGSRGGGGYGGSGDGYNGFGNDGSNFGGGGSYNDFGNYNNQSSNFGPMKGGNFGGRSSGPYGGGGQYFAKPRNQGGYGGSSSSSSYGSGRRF

UCAGUUGCUGCGGGUGGGUGGGUGGGGCAGC (structured_RNA) [chap-RNA]
Kd: 6 ± 1 µM
